Results from US6096502, “Substrate for detecting UL9 helicase activity” (Lee; Sam S.-K.).

Target: UL9 protein (origin-binding protein/helicase) (UniProt P10193 P10193:1-851)
Experiment: EMSA; binding to Box I with attached ssDNA tails verified by gel mobility shift; substrate number not specified
Conditions: tags: none stated; baculovirus-infected Sf21 nuclear extract, 83 kDa; chain copies: 2 (homodimer on Box I, stated); label: 5'-32P on 44-mer; forked duplex with 18-nt 3' ssDNA tail and 10-nt 5' ssDNA tail

Chain of UL9 protein (origin-binding protein/helicase) (P10193 whole entry, one chain of several): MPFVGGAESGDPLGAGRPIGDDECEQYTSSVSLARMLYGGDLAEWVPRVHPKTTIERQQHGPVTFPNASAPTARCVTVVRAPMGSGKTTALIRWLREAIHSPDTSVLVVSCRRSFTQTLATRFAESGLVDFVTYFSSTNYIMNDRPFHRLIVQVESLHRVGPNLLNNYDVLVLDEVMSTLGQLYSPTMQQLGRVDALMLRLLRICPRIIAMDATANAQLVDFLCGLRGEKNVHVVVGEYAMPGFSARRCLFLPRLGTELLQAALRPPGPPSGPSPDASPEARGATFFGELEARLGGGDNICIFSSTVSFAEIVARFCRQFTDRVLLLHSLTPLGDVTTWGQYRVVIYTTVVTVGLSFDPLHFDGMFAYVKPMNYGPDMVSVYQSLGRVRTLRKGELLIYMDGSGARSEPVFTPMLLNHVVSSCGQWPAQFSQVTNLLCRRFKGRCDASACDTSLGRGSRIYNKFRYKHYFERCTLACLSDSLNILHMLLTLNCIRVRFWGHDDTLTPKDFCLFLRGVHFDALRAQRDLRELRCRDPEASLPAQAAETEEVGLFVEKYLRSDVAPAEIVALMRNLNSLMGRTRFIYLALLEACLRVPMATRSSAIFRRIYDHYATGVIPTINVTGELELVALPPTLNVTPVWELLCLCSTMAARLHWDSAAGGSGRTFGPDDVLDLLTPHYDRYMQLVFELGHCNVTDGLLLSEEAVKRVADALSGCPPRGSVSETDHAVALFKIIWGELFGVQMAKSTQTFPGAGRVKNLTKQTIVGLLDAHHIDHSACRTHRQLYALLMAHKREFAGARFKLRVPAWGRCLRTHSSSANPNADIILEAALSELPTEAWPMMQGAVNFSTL

B1: Substrate I (18-nt 3' tail on first strand, 5' tail on second strand) (mixed)
DNA 1: CGCGAAGCGTTCGCACTTCGTCCCGCCTTCCTGCGCCTTCCTGT
DNA 2: CATGCTCGCAGCGGGACGAAGTGCGAACGCTTCGCG
- binding result: binds
